Results on 15 molecules are retold here after patent publication US20190233493A1 (Sanofi, published 2019).

*1 amine or outer side, *2 acyl side, *3 side chain or, on linkers, in order; H or OH if unused. Primed or numbered codes have the meaning given here. Side-chain parts run from the residue outwards. [ ]: non-standard residue; d: D form. The star is where a group is joined. PEG12 = NCCOCCOCCOCCOCCOCCOCCOCCOCCOCCOCCOCCOCCC(=O)O; γGlu = O=C(O)[C@H](CCC(=O)[*:2])N[*:1]; Stearoyl = CCCCCCCCCCCCCCCCCC(=O)*; Palmitoyl = CCCCCCCCCCCCCCCC(=O)*; Nle = CCCC[C@H](N)C(=O)O; PEG2″ = not defined here; Aib = CC(C)(N)C(=O)O

The chains are these.
T1: RXFP1 receptor (UniProt Q9HBX9 1-757, limits assumed)
T1 sequence (looked up): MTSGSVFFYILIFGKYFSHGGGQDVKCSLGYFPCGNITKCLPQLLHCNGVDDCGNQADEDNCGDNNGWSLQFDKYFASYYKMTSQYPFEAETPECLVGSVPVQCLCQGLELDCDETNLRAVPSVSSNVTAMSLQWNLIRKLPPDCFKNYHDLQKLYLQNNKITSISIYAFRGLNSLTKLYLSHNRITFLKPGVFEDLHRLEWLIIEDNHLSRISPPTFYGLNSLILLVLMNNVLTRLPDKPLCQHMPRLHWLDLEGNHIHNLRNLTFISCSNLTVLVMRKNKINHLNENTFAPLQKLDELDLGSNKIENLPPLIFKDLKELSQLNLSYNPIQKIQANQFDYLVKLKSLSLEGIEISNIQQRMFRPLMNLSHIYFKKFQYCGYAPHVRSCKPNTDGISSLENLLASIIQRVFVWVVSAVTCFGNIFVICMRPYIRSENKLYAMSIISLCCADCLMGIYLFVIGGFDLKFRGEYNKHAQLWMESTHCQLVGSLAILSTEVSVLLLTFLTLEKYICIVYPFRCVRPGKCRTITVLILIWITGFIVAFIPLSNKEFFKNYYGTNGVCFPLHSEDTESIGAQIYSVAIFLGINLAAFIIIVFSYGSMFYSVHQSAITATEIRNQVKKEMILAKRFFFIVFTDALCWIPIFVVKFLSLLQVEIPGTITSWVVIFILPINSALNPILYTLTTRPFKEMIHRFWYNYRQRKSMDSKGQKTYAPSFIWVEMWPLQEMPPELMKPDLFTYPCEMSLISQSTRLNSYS

B1: peptide of SEQ ID NO: 8 (peptide)
peptide: Ac-LEGREKVRAQI[Aib][Aib]EG[Nle]STWS[Aib]RKK([γGlu-γGlu-γGlu-Palmitoyl])-NH2
SMILES: CCCCCCCCCCCCCCCC(=O)N[C@@H](CCC(=O)N[C@@H](CCC(=O)N[C@@H](CCC(=O)NCCCC[C@H](NC(=O)[C@H](CCCCN)NC(=O)[C@H](CCCNC(=N)N)NC(=O)C(C)(C)NC(=O)[C@H](CO)NC(=O)[C@H](Cc1c[nH]c2ccccc12)NC(=O)[C@@H](NC(=O)[C@H](CO)NC(=O)[C@H](CCCC)NC(=O)CNC(=O)[C@H](CCC(=O)O)NC(=O)C(C)(C)NC(=O)C(C)(C)NC(=O)[C@@H](NC(=O)[C@H](CCC(N)=O)NC(=O)[C@H](C)NC(=O)[C@H](CCCNC(=N)N)NC(=O)[C@@H](NC(=O)[C@H](CCCCN)NC(=O)[C@H](CCC(=O)O)NC(=O)[C@H](CCCNC(=N)N)NC(=O)CNC(=O)[C@H](CCC(=O)O)NC(=O)[C@H](CC(C)C)NC(C)=O)C(C)C)[C@@H](C)CC)[C@@H](C)O)C(N)=O)C(=O)O)C(=O)O)C(=O)O
B2: peptide of SEQ ID NO: 7 (peptide)
peptide: Ac-LEGREKVRAQI[Aib][Aib]EGMSTWS[Aib]RKK([γGlu-γGlu-γGlu-Palmitoyl])-NH2
SMILES: CCCCCCCCCCCCCCCC(=O)N[C@@H](CCC(=O)N[C@@H](CCC(=O)N[C@@H](CCC(=O)NCCCC[C@H](NC(=O)[C@H](CCCCN)NC(=O)[C@H](CCCNC(=N)N)NC(=O)C(C)(C)NC(=O)[C@H](CO)NC(=O)[C@H](Cc1c[nH]c2ccccc12)NC(=O)[C@@H](NC(=O)[C@H](CO)NC(=O)[C@H](CCSC)NC(=O)CNC(=O)[C@H](CCC(=O)O)NC(=O)C(C)(C)NC(=O)C(C)(C)NC(=O)[C@@H](NC(=O)[C@H](CCC(N)=O)NC(=O)[C@H](C)NC(=O)[C@H](CCCNC(=N)N)NC(=O)[C@@H](NC(=O)[C@H](CCCCN)NC(=O)[C@H](CCC(=O)O)NC(=O)[C@H](CCCNC(=N)N)NC(=O)CNC(=O)[C@H](CCC(=O)O)NC(=O)[C@H](CC(C)C)NC(C)=O)C(C)C)[C@@H](C)CC)[C@@H](C)O)C(N)=O)C(=O)O)C(=O)O)C(=O)O
B3: peptide of SEQ ID NO: 66 (peptide)
peptide: Ac-LEGREKVRAK(Ac)I[Aib][Aib]EG[Nle]STWS[Aib]RKK(Ac)K([PEG12-γGlu-γGlu-γGlu-Palmitoyl])-NH2
SMILES: CCCCCCCCCCCCCCCC(=O)N[C@@H](CCC(=O)N[C@@H](CCC(=O)N[C@@H](CCC(=O)NCCOCCOCCOCCOCCOCCOCCOCCOCCOCCOCCOCCOCCC(=O)NCCCC[C@H](NC(=O)[C@H](CCCCNC(C)=O)NC(=O)[C@H](CCCCN)NC(=O)[C@H](CCCNC(=N)N)NC(=O)C(C)(C)NC(=O)[C@H](CO)NC(=O)[C@H](Cc1c[nH]c2ccccc12)NC(=O)[C@@H](NC(=O)[C@H](CO)NC(=O)[C@H](CCCC)NC(=O)CNC(=O)[C@H](CCC(=O)O)NC(=O)C(C)(C)NC(=O)C(C)(C)NC(=O)[C@@H](NC(=O)[C@H](CCCCNC(C)=O)NC(=O)[C@H](C)NC(=O)[C@H](CCCNC(=N)N)NC(=O)[C@@H](NC(=O)[C@H](CCCCN)NC(=O)[C@H](CCC(=O)O)NC(=O)[C@H](CCCNC(=N)N)NC(=O)CNC(=O)[C@H](CCC(=O)O)NC(=O)[C@H](CC(C)C)NC(C)=O)C(C)C)[C@@H](C)CC)[C@@H](C)O)C(N)=O)C(=O)O)C(=O)O)C(=O)O

The assay addresses T1, RXFP1 receptor. The assay is described as follows: cell-based or functional assay.
As for Ac-LEGREKVRAK(Ac)I[Aib][Aib]EG[Nle]STWS[Aib]RK(Ac)KK([PEG2″-PEG2″-γGlu-γGlu-γGlu-Stearoyl])-NH2 [peptide of SEQ ID NO: 72], the “EC50 (nM), OVCAR 5 cells (cAMP)” value is 0.17 nM and the “EMax, OVCAR 5 cells (cAMP)” value was 93%.
Take Ac-LEGREKVRAQI[Aib][Aib]EG[Nle]STWT[Aib]RKKK([PEG2″-PEG2″-PEG2″-γGlu-γGlu-γGlu-Stearoyl])-NH2 [peptide of SEQ ID NO: 76]: the “EC50 (nM), OVCAR 5 cells (cAMP)” value came out at 0.8 nM and the “EMax, OVCAR 5 cells (cAMP)” value amounted to 89%.
For Ac-LEGREKVRAK(Ac)I[Aib][Aib]EG[Nle]STWS[Aib]RKK([PEG2″-PEG2″-γGlu-γGlu-γGlu-Stearoyl])-NH2 [peptide of SEQ ID NO: 73], in that order: 0.12 nM and 90%.
B1: the “EC50 (nM), OVCAR 5 cells (cAMP)” value stood at 26.7 nM and the “EMax, OVCAR 5 cells (cAMP)” value stood at 98%.
Regarding Ac-LEGREKVRAK(Ac)I[Aib][Aib]EG[Nle]STYS[Aib]RKK(Ac)K([PEG2″-PEG2″-PEG2″-γGlu-γGlu-γGlu-Stearoyl])-NH2 [peptide of SEQ ID NO: 78], the “EC50 (nM), OVCAR 5 cells (cAMP)” value was determined as 1.04 nM and the “EMax, OVCAR 5 cells (cAMP)” value was found to be 73%.
For Ac-LEGREKVRAQI[Aib][Aib]EG[Nle]STWS[Aib]RKK([PEG2″-PEG2″-γGlu-γGlu-γGlu-Stearoyl])-NH2 [peptide of SEQ ID NO: 67], in that order: 0.39 nM and 89%.
Regarding Ac-LEGREKVRAQI[Aib][Aib]EGQSTWS[Aib]RKKK([PEG2″-PEG2″-γGlu-γGlu-γGlu-Stearoyl])-NH2 [peptide of SEQ ID NO: 70], the “EC50 (nM), OVCAR 5 cells (cAMP)” value was found to be 0.28 nM and the “EMax, OVCAR 5 cells (cAMP)” value is 86%.
Consider Ac-LEGREKVRAQI[Aib][Aib]EG[Nle]STWS[Aib]RKKK([PEG2″-PEG2″-γGlu-γGlu-γGlu-Stearoyl])-NH2 [peptide of SEQ ID NO: 71], for which the “EC50 (nM), OVCAR 5 cells (cAMP)” value came out at 0.52 nM and the “EMax, OVCAR 5 cells (cAMP)” value was 87%.
Consider Ac-LEGREKVRAQI[Aib][Aib]EGESTWS[Aib]RKKK([PEG2″-PEG2″-γGlu-γGlu-γGlu-Stearoyl])-NH2 [peptide of SEQ ID NO: 68], for which the “EC50 (nM), OVCAR 5 cells (cAMP)” value came to 0.63 nM and the “EMax, OVCAR 5 cells (cAMP)” value came out at 94%.
With Ac-LEGREKVRLQI[Aib][Aib]EG[Nle]STWT[Aib]RKKK([PEG2″-PEG2″-PEG2″-γGlu-γGlu-γGlu-Stearoyl])-NH2 [peptide of SEQ ID NO: 77], the “EC50 (nM), OVCAR 5 cells (cAMP)” value amounted to 2.94 nM and the “EMax, OVCAR 5 cells (cAMP)” value worked out at 92%.
With Ac-LEGREKVRAQI[Aib][Aib]EG[Nle]STWS[Aib]RKKK([PEG2″-PEG2″-PEG2″-γGlu-γGlu-γGlu-Stearoyl])-NH2 [peptide of SEQ ID NO: 75], the “EMax, OVCAR 5 cells (cAMP)” value was determined as 88%.
Ac-LEGREKVR[Aib]QI[Aib][Aib]EG[Nle]STWS[Aib]RKKK([PEG2″-PEG2″-γGlu-γGlu-γGlu-Stearoyl])-NH2 [peptide of SEQ ID NO: 69]: the “EC50 (nM), OVCAR 5 cells (cAMP)” value was 0.56 nM and the “EMax, OVCAR 5 cells (cAMP)” value was 87%.
In the case of B2, the “EC50 (nM), OVCAR 5 cells (cAMP)” value came to 17.6 nM and the “EMax, OVCAR 5 cells (cAMP)” value was 87%.
Regarding B3, the “EC50 (nM), OVCAR 5 cells (cAMP)” value was 0.57 nM and the “EMax, OVCAR 5 cells (cAMP)” value was 83%.
For Ac-LEGREKVRAQI[Aib][Aib]EG[Nle]STWS[Aib]RKK([PEG2″-PEG2″-PEG2″-γGlu-γGlu-γGlu-Stearoyl])-NH2 [peptide of SEQ ID NO: 74], in that order: 0.07 nM and 85%.
